# T1: eIF4G9 (S. cerevisiae, UniProt P39935 160-492)
# T1 construct: also called eIF4G9 fragment (160–492); shorten version of eIF4G1; source: E. coli (pGEX-1λT), purified
# T1 sequence (looked up): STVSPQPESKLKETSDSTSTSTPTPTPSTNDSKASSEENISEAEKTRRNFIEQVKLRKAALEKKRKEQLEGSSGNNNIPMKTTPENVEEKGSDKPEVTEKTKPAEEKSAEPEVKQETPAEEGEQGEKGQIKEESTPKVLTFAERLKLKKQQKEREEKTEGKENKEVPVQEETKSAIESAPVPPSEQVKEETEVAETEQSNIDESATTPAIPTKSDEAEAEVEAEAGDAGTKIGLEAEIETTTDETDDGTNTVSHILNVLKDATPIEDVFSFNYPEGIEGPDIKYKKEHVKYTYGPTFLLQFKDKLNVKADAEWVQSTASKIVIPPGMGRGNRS
# T2: GST-NAB2-HIS6 (S. cerevisiae, UniProt P32505 1-525)
# T2 construct: source: E. coli, purified on nickel-agarose
# T2 sequence (looked up): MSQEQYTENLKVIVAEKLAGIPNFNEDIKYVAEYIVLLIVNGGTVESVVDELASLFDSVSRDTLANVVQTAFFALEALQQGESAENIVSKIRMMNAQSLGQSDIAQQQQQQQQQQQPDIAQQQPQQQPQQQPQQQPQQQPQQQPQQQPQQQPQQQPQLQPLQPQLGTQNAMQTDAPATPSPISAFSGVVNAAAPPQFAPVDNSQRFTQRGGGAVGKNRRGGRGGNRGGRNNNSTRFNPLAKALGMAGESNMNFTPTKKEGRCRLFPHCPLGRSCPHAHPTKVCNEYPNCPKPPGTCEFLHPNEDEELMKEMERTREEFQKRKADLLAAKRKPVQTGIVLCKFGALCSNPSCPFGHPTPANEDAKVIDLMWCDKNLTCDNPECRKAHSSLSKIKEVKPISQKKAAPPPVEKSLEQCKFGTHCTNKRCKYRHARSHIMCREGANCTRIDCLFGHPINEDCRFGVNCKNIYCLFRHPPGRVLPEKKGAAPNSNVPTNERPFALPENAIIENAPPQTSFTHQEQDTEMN
# How the values were obtained:
# [1] = biological target: T1, eIF4G9; assay: pull-down; 7-methyl-GTP Sepharose beads loaded with 5 μg purified eIF4E or Cbp20, 5 μg of the purified proteins added with 50 U RNase I, 90 min on ice, TpB buffer (20 mM HEPES pH 7.9, 100 mM KCl, 2 mM MgCl2, 2 mM DTT), eluted with 1 mM 7-methyl-GTP; Coomassie-stained SDS PAGE; conditions: both partners purified
# [2] = biological target: T3, Ded1-His6 (S. cerevisiae, UniProt P06634 1-604); assay: cell-based or functional assay
# T3 sequence (P06634 whole entry): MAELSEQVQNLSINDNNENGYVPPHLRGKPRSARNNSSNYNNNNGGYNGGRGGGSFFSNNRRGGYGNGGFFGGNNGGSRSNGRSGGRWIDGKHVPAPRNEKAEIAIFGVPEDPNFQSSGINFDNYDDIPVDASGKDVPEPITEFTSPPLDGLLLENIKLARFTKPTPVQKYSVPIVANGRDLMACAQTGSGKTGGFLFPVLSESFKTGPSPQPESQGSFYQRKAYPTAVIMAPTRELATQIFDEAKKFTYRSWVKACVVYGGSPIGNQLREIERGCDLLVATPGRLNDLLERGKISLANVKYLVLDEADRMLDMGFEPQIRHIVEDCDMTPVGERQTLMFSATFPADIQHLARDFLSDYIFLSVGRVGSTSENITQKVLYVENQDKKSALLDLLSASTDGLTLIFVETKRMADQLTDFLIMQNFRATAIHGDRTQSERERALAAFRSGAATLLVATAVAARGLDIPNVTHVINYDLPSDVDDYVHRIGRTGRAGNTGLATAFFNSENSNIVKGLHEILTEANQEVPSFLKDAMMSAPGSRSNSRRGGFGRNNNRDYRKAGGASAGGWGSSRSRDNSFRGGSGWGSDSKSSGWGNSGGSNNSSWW
# [3] = biological target: T2, GST-NAB2-HIS6; assay: pull-down; 7-methyl-GTP Sepharose beads loaded with 5 μg purified eIF4E or Cbp20, 5 μg of the purified proteins added with 50 U RNase I, 90 min on ice, TpB buffer (20 mM HEPES pH 7.9, 100 mM KCl, 2 mM MgCl2, 2 mM DTT), eluted with 1 mM 7-methyl-GTP; Coomassie-stained SDS PAGE; conditions: both partners purified
# [4] = biological target: T3, Ded1-His6; assay: pull-down; Ded1 bound to protein A Sepharose beads crosslinked to IgG against Ded1, incubated with single purified proteins, washed, eluted; Coomassie-stained SDS PAGE, western blot for Pab1 and Cbp80; same results with or without RNase I or AMP-PNP; conditions: both partners purified
binding result [1],"RNA-dependent ATPase activity, % Ded1 [2]",binding result [3],binding result [4],Binder
binds,105%,,,"eIF4E with an amino-terminal His6 tag (natural protein, S. cerevisiae, UniProt P07260 1-213, looked up, eIF4E (CDC33) of S. cerevisiae cloned into the NdeI-BamHI sites of pET15b; also called CDC33; source: E. coli (pET15b), purified on nickel-agarose) MSVEEVSKKFEENVSVDDTTATPKTVLSDSAHFDVKHPLNTKWTLWYTKPAVDKSESWSDLLRPVTSFQTVEEFWAIIQNIPEPHELPLKSDYHVFRNDVRPEWEDEANAKGGKWSFQLRGKGADIDELWLRTLLAVIGETIDEDDSQINGVVLSIRKGGNKFALWTKSEDKEPLLRIGGKFKQVLKLTDDGHLEFFPHSSANGRHPQPSITL"
,97%,binds,,"His6-Cbp20 (natural protein, S. cerevisiae, UniProt Q08920 1-208, looked up, Cbp20 of S. cerevisiae subcloned from pRSETC20 into the NdeI-BamHI sites of pET19b; Printed name His6-Cbp20; also called Cpb20; source: E. coli (pET19b), purified on nickel-agarose) MSLEEFDEVKYDHSTKRLDTPSRYLLRKARRNPNGLQELRESMKSSTIYVGNLSFYTSEEQIYELFSKCGTIKRIIMGLDRFKFTPCGFCFIIYSCPDEALNALKYLSDTKLDEKTITIDLDPGFEDGRQFGRGKSGGQVSDELRFDFDASRGGFAIPFAERVGVPHSRFDNSSSQSNTNNYIPPPDAMGTFRPGFDEEREDDNYVPQ"
,,,binds,"eIF4G-His6 fragment 387–952 (domain or fragment, S. cerevisiae, UniProt P39935 387-952, looked up, Not among the constructs of the methods) AGTKIGLEAEIETTTDETDDGTNTVSHILNVLKDATPIEDVFSFNYPEGIEGPDIKYKKEHVKYTYGPTFLLQFKDKLNVKADAEWVQSTASKIVIPPGMGRGNRSRDSGRFGNNSSRGHDFRNTSVRNMDDRANSRTSSKRRSKRMNDDRRSNRSYTSRRDRERGSYRNEEKREDDKPKEEVAPLVPSANRWVPKFKSKKTEKKLAPDGKTELLDKDEVERKMKSLLNKLTLEMFDAISSEILAIANISVWETNGETLKAVIEQIFLKACDEPHWSSMYAQLCGKVVKELNPDITDETNEGKTGPKLVLHYLVARCHAEFDKGWTDKLPTNEDGTPLEPEMMSEEYYAAASAKRRGLGLVRFIGFLYRLNLLTGKMMFECFRRLMKDLTDSPSEETLESVVELLNTVGEQFETDSFRTGQATLEGSQLLDSLFGILDNIIQTAKISSRIKFKLIDIKELRHDKNWNSDKKDNGPKTIQQIHEEEERQRQLKNNSRSNSRRTNNSSNRHSFRRDAPPASKDSFITTRTYSQRNSQRAPPPKEEPAAPTSTATNMFSALMGESDDEE"

# From PMC4150762, “The DEAD-box helicase Ded1 from yeast is an mRNP cap-associated protein that shuttles between the cytoplasm and nucleus” (Nucleic Acids Research, 2014)
